Target: human serum albumin (human, UniProt P02768 25-609)
Test: cross-linking
Conditions: both partners purified

B1: M1 protein (amino acids 42–484), recombinant (domain or fragment)
chain: NGDGNPREVIEDLAANNPAIQNIRLRYENKDLKARLENAMEVAGRDFKRAEELEKAKQALEDQRKDLETKLKELQQDYDLAKESTSWDRQRLEKELEEKKEALELAIDQASRDYHRATALEKELEEKKKALELAIDQASQDYNRANVLEKELETITREQEINRNLLGNAKLELDQLSSEKEQLTIEKAKLEEEKQISDASRQSLRRDLDASREAKKQVEKDLANLTAELDKVKEDKQISDASRQGLRRDLDASREAKKQVEKDLANLTAELDKVKEEKQISDASRQGLRRDLDASREAKKQVEKALEEANSKLAALEKLNKELEESKKLTEKEKAELQAKLEAEAKALKEQLAKQAEELAKLRAGKASDSQTPDTKPGNKAVPGKGQAPQAGTKPNQNKAPMKETKRQLPSTGETANPFFTAAALTVMATAGVAAVVKRKEEN
notes: source: E. coli BL21 (DE3), purified (fibrinogen column, Ni-coupled Imac Sepharose)
binding result: binds

From paper PMC6331586, “Rapid determination of quaternary protein structures in complex biological samples” (Nature Communications, 2019)
